Measurements as given in patent US8748569B2, “Peptide amphiphiles and methods to electrostatically control bioactivity of the ikvav peptide epitope” (Northwestern University, priority 2011, dated 2014).
* marks the point of attachment. Palmitoyl = CCCCCCCCCCCCCCCC(=O)*

Experiment: Transmission electron microscopy (cryoTEM / conventional TEM) of PA nanostructures
Type: physicochemical
Conditions: for average diameter of cylindrical fibers: cryoTEM, 150 mM NaCl, 3 mM KCl, pH 7.4
Experimental: The nanostructure of each PA molecule under physiologically relevant conditions was investigated using electron microscopy. Samples for vitreous ice cryo-transmission electron microscopy (cryoTEM) were prepared from a 0.1-0.5 wt % PA solution dissolved in 150 mM NaCl, 3 mM KCl, or in a 150 mM NaCl, 3 mM KCl, and 5 mM CaCl2 solution, both at a pH of 7.2-7.4. The solutions were then heated to 80° C. in a water bath for 1 hr, and then slowly cooled to room temperature over the course of 8 hr. 10 μL of each solution was pipetted onto a plasma cleaned holey carbon TEM grid (Electron Microscopy Sciences), blotted and plunged into liquid ethane using a FEI Vitrobot Mark IV. Samples were kept at −180° C. and imaged using a JEOL 1230 TEM operating at 100 kV.
Samples for conventional TEM microscopy were prepared from 0.1 wt % PA solution dissolved in ultrapure water and adjusted to a pH of 7.2-7.4 by adding NaOH. The solutions were then heated to 80° C. in a water bath for 1 hr, and then slowly cooled to room temperature over the course of 8 hr, unless noted otherwise. 2 μL of a 0.1 wt % PA solution was pipetted onto a Carbon Formvar grid (Electron Microscopy Sciences) and allowed to dry. The samples were then negatively stained by pipetting 2 uL of a 2 wt % Uranyl acetate solution and allowed to dry. Each sample was imaged using a JEOL 1230 TEM operating at 100 kV. The average diameter of nanofibers was obtained via measuring 40-100 different fibers from solutions and grids prepared throughout multiple days.
The assembly of each PA molecule under physiologically relevant conditions was examined using cryogenic electron microscopy (cryoTEM), as described in Example 4. PAs were dissolved in isotonic salt solutions resembling extracellular fluid (150 mM NaCl, 3 mM KCl, pH 7.4). […] In order to compare molecular simulation diameters with those observed from TEM, molecular simulation values for the other four PA molecules were scaled by the same amount, 87%.

CH3(CH2)14C(O)-VVAAEE-NH2 (Palmitoyl-VVAAEE-NH2) [PA 1]
average diameter of cylindrical fibers: 6.7±0.9 nm
average diameter of cylindrical fibers (listed as PA compound 1): 6.7 nm
OBSERVED FIBER DIAMETER (from TEM): 66 ± 9 Å
ASSEMBLED MORPHOLOGY (observed morphologies from TEM): Cylindrical fiber
